Experiment [1] concerns the target FUsed in Sarcoma (FUS) in HeLa-Kyoto cells (human (endogenous in HeLa-Kyoto)) (UniProt P35637). As to the kind of experiment: cross-linking + co-IP.
The target in experiment [2] is RNA polymerase II (RNA Pol II) (human (endogenous in HeLa-Kyoto)) (UniProt P24928). Nature of the experiment: cross-linking + co-IP.

Among the data in publication PMC9275567 are percent of RNA Pol II cross-linked to FUS (large particles, >70 nm), percent of RNA Pol II cross-linked to FUS (whole cell lysate) and percent of cellular FUS cross-linked to RNA Pol II values, retold here.

As to “RNA polymerase II (RNA Pol II) (from UniProt P24928 1-1970) (complex)”, in experiment [1], the percent of RNA Pol II cross-linked to FUS (large particles, >70 nm) was found to be 69% and the percent of RNA Pol II cross-linked to FUS (whole cell lysate) was 87%.

Take “FUsed in Sarcoma (FUS) in HeLa-Kyoto cells (from UniProt P35637 1-526) (natural protein)”: the percent of cellular FUS cross-linked to RNA Pol II in experiment [2] was 21%.
